We go through 10 proteins from FireProtDB.

Several values for one entry are separate records, joined by “and”; a condition that tells them apart may be missing. Equal values may be shown once.

For this data set the following is noted: whole UniProt chain shown.
Setting [1] is: Gallus gallus, pH 7, 25 °C, GdnHCl, Fluorescence, Phosphate 10 mM, NaCl 50 mM.
[2] abbreviates: Homo sapiens, pH 6.5, 25 °C, Urea, CD, Sodium phosphate 20 mM, NaCl 100 mM.
Where [3] appears, read: Homo sapiens, pH 7, Thermal, DSC, Potassium phosphate buffer, NaCl, reversible: yes.
[4] abbreviates: Hirudo medicinalis, pH 5.4, 25 °C, GdnHCl, CD, KH2PO4-NaOH 10 mM, reversible: yes.
The mark [5] stands for this setting: Homo sapiens, pH 2.2, 25 °C, GdnHCl, CD, Sodium cacodylate 50 mM, NaCl 50 mM.
The mark [6] stands for this setting: Homo sapiens, pH 8, 25 °C, GdnHCl, CD, Tris-HCl 20 mM.
Setting [7] is: Homo sapiens, pH 5.3, Thermal, DSC, acetate 20 mM.
Setting [8] is: Homo sapiens, pH 4, 25 °C, GdnHCl, CD, Tris sodium acetate MES 50 mM 20 mM 20 mM.
The mark [9] stands for this setting: Homo sapiens, pH 7, 25 °C, GdnHCl, CD, Tris sodium acetate MES 50 mM 20 mM 20 mM.
Setting [10] is: Homo sapiens, pH 7, 25 °C, Urea, CD, Tris-HCL, Nacl, transition: 2, reversible: yes.
The mark [11] stands for this setting: Homo sapiens, pH 7, 25 °C, Urea, Fluorescence, Tris-HCl, NaCl, transition: 2.
The mark [12] stands for this setting: Homo sapiens, pH 7, 25 °C, Urea, fluorescence, Tris-HCL, Nacl, transition: 2, reversible: yes.
The mark [13] stands for this setting: Homo sapiens, pH 7, 37 °C, GdnHCl, CD, Sodium phosphate 100 mM, reversible: Yes.

B1: Riboflavin-binding protein wild type, P02752 (protein)
chain: MLRFAITLFAVITSSTCQQYGCLEGDTHKANPSPEPNMHECTLYSESSCCYANFTEQLAHSPIIKVSNSYWNRCGQLSKSCEDFTKKIECFYRCSPHAARWIDPRYTAAIQSVPLCQSFCDDWYEACKDDSICAHNWLTDWERDESGENHCKSKCVPYSEMYANGTDMCQSMWGESFKVSESSCLCLQMNKKDMVAIKHLLSESSEESSSMSSSEEHACQKKLLKFEALQQEEGEERR
On to B1, for which, under setting [1], the denaturant m value is 4.14 kcal/mol/M and the unfolding free energy was determined as 2.78 kcal/mol.

B2: Glutathione S-transferase A1 wild type, P08263 (protein)
chain: MAEKPKLHYFNARGRMESTRWLLAAAGVEFEEKFIKSAEDLDKLRNDGYLMFQQVPMVEIDGMKLVQTRAILNYIASKYNLYGKDIKERALIDMYIEGIADLGEMILLLPVCPPEEKDAKLALIKEKIKNRYFPAFEKVLKSHGQDYLVGNKLSRADIHLVELLYYVEELDSSLISSFPLLKALKTRISNLPTVKKFLQPGSPRKPPMDEKSLEEARKIFRF
Take B2: under setting [2], the denaturant m value was 4.2 kcal/mol/M and the “denaturant midpoint (higher = more stable)” value (“denaturant midpoint” below) worked out at 4.6 M.

B3: Protein CutA wild type, O60888 (protein)
chain: MSGGRAPAVLLGGVASLLLSFVWMPALLPVASRLLLLPRVLLTMASGSPPTQPSPASDSGSGYVPGSVSAAFVTCPNEKVAKEIARAVVEKRLAACVNLIPQITSIYEWKGKIEEDSEVLMMIKTQSSLVPALTDFVRSVHPYEVAEVIALPVEQGNFPYLQWVRQVTESVSDSITVLP
In general, Tm refers to the temperature at which the thermal transition is half complete. Consider B3, for which, under setting [3], the Tm amounted to 96.4 °C, the “unfolding enthalpy (calorimetric)” value was found to be 284 kcal/mol and the unfolding free energy came to 0 kcal/mol. The “denaturant midpoint” value (Homo sapiens, pH 8, 37 °C, GdnHCl, CD, Tris-HCl buffer, NaCl, transition: 2, reversible: yes) worked out at 2.38 M.

B4: Eglin C wild type, P01051 (protein)
chain: TEFGSELKSFPEVVGKTVDQAREYFTLHYPQYDVYFLPEGSPVTLDLRYNRVRVFYNPGTNVVNHVPHVG
For B4, under setting [4], the denaturant m value amounted to 3.87 kcal/mol/M and the unfolding free energy stood at 6.5 kcal/mol.

B5: Alpha-lactalbumin wild type, P00709 (protein)
chain: MRFFVPLFLVGILFPAILAKQFTKCELSQLLKDIDGYGGIALPELICTMFHTSGYDTQAIVENNESTEYGLFQISNKLWCKSSQVPQSRNICDISCDKFLDDDITDDIMCAKKILDIKGIDYWLAHKALCTEKLEQWLCEKL
Regarding B5, under setting [5], the denaturant m value amounted to 0.95 kcal/mol/M, the “denaturant midpoint” value was 4.67 M and the unfolding free energy amounted to 4.45 kcal/mol. Also, for the setting “Homo sapiens, pH 7, Thermal, CD, Sodium cacodylate 50 mM, NaCl 50 mM, reversible: yes”, the “heat capacity change of unfolding” value worked out at 1.1 kcal/mol/K. Further, the unfolding free energy (Homo sapiens, pH 7.3, 25 °C, GdnHCl, CD, Tris-HCl 0.05 M, reversible: yes) was 6.8 kcal/mol. Moreover, under setting [6], the denaturant m value was determined as 0.85 kcal/mol/M, the “denaturant midpoint” value worked out at 3.09 M and the unfolding free energy turned out to be 2.63 kcal/mol.

B6: Cystatin-B wild type, P04080 (protein)
chain: MMCGAPSATQPATAETQHIADQVRSQLEEKENKKFPVFKAVSFKSQVVAGTNYFIKVHVGDEDFVHLRVFQSLPHENKPLTLSNYQTNKAKHDELTYF
Regarding B6, under setting [7], the Tm was 50.2 °C, the “heat capacity change of unfolding” value is 1.6 kcal/mol/K and the “unfolding enthalpy (calorimetric)” value was determined as 70 kcal/mol.

B7: Gamma-crystallin D wild type, P07320 (protein)
chain: MGKITLYEDRGFQGRHYECSSDHPNLQPYLSRCNSARVDSGCWMLYEQPNYSGLQYFLRRGDYADHQQWMGLSDSVRSCRLIPHSGSHRIRLYEREDYRGQMIEFTEDCSCLQDRFRFNEIHSLNVLEGSWVLYELSNYRGRQYLLMPGDYRRYQDWGATNARVGSLRRVIDFS
Regarding B7, the “denaturant midpoint” value came out at 3.7 M (Homo sapiens, pH 7, 25 °C, GdnHCl, Fluorescence, NaPO4 10 mM, reversible: yes) and 2.7 M (Homo sapiens, pH 7, 37 °C, GdnHCl, Fluorescence, NaPO4 10 mM, reversible: yes). Besides, the Tm worked out at 76.6 °C (Homo sapiens, pH 7, Thermal, ANS fluorescence, PBS, transition: 2, reversible: yes) and 80 °C (Homo sapiens, pH 7, Thermal, CD, PBS, transition: 2, reversible: yes).

B8: Interleukin-2 wild type, Q7Z7M3 (protein)
chain: MPTSSSTKKTQLQLEHLLLDLQMILNGINNYKNPKLTRMLTFKFYMPKKATELKHLQCLEEELKPLKEVLNLAQSKNFHLRPRDLISNINVIVLELKGSETTFMCEYADETATIVEFLNRWITFSQSIISTLT
For the protein B8, under setting [8], the “denaturant midpoint” value was determined as 4.4 M and the unfolding free energy was determined as 9.9 kcal/mol. Also, under setting [9], the “denaturant midpoint” value was 3.8 M and the unfolding free energy was 9.3 kcal/mol.

B9: Frataxin, mitochondrial wild type, Q16595 (protein)
chain: MWTLGRRAVAGLLASPSPAQAQTLTRVPRPAELAPLCGRRGLRTDIDATCTPRRASSNQRGLNQIWNVKKQSVYLMNLRKSGTLGHPGSLDETTYERLAEETLDSLAEFFEDLADKPYTFEDYDVSFGSGVLTVKLGGDLGTYVINKQTPNKQIWLSSPSSGPKRYDWTGKNWVYSHDGVSLHELLAAELTKALKTKLDLSSLAYSGKDA
Consider B9, for which the “denaturant midpoint” value reads like this: under setting [10], 4.92 M; (Homo sapiens, pH 7, 25 °C, Urea, CD, Tris-HCl, NaCl, transition: 2) 4.92 M; under setting [11], 4.94 M; under setting [12], 4.94 M. Besides, the unfolding free energy is 9 kcal/mol under setting [10], 9.1 kcal/mol under setting [11] and 9.1 kcal/mol under setting [12]. In addition, the Tm is 69.4 °C (Homo sapiens, pH 7, Thermal, CD, Sodium phosphate buffer, NaCl) and 69.4 °C (Homo sapiens, pH 7, Thermal, CD, sodium phosphate, Nacl, transition: 2).

B10: Gamma-crystallin S wild type, P22914 (protein)
chain: MSKTGTKITFYEDKNFQGRRYDCDCDCADFHTYLSRCNSIKVEGGTWAVYERPNFAGYMYILPQGEYPEYQRWMGLNDRLSSCRAVHLPSGGQYKIQIFEKGDFSGQMYETTEDCPSIMEQFHMREIHSCKVLEGVWIFYELPNYRGRQYLLDKKEYRKPIDWGAASPAVQSFRRIVE
Turning to B10, under setting [13], the denaturant m value was 4.6 kcal/mol/M and 2.9 kcal/mol/M; the “denaturant midpoint” value is 2.3 M and 1.7 M; the unfolding free energy was 10.5 kcal/mol and 4.9 kcal/mol. Besides, the Tm (Homo sapiens, pH 7.4, Thermal, Fluorescence, Disodium phosphate, NaCl) was 67.5 °C and 65.8 °C.
